Source: publication PMC4683255, “Evidence for a Functional O-Linked N-Acetylglucosamine (O-GlcNAc) System in the Thermophilic Bacterium Thermobaculum terrenum*” (The Journal of Biological Chemistry, 2015)
Where no end group is shown, it is not given here. The star is where a group is joined. βGlcNAc = CC(=O)N[C@@H]1[C@@H](O)[C@H](O)[C@@H](CO)O[C@H]1*

How the values were obtained:
TtOGT = molecular target: T1, TtOGT (Thermobaculum terrenum, UniProt D1CIY5, K341M); assay: X-ray crystal structure of complex, […] A; format: binding; conditions: co-crystallized with 10 mM UDP; active site; mutant stated in the crystallization methods; PDB code assigned by reader
T1 construct: gene Tter_2822; full-length, N-terminal GST fusion from E. coli BL21, GST cut off with PreScission protease (pGEX-6P-1)
T1 sequence (D1CIY5 entry or part of it K341M): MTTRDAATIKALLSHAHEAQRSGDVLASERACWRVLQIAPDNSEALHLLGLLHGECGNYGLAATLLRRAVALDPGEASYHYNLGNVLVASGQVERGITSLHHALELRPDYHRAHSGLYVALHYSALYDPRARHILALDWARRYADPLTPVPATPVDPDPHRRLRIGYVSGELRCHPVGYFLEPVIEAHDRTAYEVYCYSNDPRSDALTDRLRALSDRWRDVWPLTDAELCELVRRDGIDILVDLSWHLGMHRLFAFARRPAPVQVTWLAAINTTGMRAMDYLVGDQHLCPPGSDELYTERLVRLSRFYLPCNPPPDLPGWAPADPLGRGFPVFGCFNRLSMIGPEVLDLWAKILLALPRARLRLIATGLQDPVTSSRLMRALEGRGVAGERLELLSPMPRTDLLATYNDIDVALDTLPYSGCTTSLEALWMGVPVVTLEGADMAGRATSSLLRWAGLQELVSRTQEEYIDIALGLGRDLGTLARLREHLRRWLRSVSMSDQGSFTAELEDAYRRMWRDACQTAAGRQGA

TtOGA = molecular target: T2, TtOGA (Thermobaculum terrenum, UniProt D1CDN2); assay: fluorogenic 4MU-GlcNAc hydrolysis; Ki from IC50 by Cheng-Prusoff; format: biochemical; conditions: 4MU-GlcNAc 90 uM (= Km); 4 pM enzyme; 1 min preincubation
T2 construct: gene Tter_0116; full-length, N-terminal GST fusion from E. coli BL21, GST cut off with PreScission protease (pGEX-6P-1)

[1] = substrate: CC(=O)N[C@H]1[C@H](Oc2ccc3c(C)cc(=O)oc3c2)O[C@H](CO)[C@@H](O)[C@@H]1O; assay: fluorescence of released 4-methylumbelliferone, Michaelis-Menten fit; format: biochemical, Thermobaculum terrenum; conditions: TBS, 0.1 mg/ml BSA, 2% DMSO; 0.2 nM enzyme
[2] = molecular target: T3, TtOGA D120N (Thermobaculum terrenum O-GlcNAcase orthologue, product of gene Tter_0116, catalytic acid mutant) (Thermobaculum terrenum strain YNP1, UniProt D1CDN2 1-474, D120N); assay: crystal structure; co-crystallised: 40 mg/ml TtOGA D120N with 7.2 mM hTab1-O-GlcNAc peptide in 50 mM HEPES pH 7.5, 250 mM NaCl, 0.5 mM TCEP; sitting drops, 38% PEG 4000, 400 mM sodium acetate, 0.1 M Tris-HCl pH 8.5, 22 °C; 2.06 Å; conditions: both partners purified
T3 construct: O-GlcNAcase (GH84) orthologue TtOGA of Thermobaculum terrenum YNP1, gene Tter_0116, full length, cloned into pGEX-6P-1; GST removed with PreScission protease; also called D120N mutant of TtOGA; Ttoga product; source: E. coli BL21, purified (GSH-Sepharose, PreScission cleavage, Superdex 75); not shown: GST, N-terminal, cleaved
T3 sequence (looked up): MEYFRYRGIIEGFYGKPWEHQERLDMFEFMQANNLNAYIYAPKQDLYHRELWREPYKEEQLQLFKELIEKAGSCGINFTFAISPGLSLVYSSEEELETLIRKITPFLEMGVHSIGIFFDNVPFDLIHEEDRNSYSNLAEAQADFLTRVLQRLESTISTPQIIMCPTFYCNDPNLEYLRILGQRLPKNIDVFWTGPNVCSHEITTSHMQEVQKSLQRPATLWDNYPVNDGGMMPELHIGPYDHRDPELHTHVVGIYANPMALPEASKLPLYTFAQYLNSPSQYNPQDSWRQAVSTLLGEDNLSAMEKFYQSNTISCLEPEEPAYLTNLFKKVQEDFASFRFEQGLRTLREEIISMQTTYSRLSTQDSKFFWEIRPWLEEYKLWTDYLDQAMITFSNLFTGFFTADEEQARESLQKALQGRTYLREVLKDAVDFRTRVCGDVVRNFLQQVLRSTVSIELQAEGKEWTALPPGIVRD

With `O=c1ccn([C@@H]2O[C@H](COP(=O)(O)OP(=O)(O)O)[C@@H](O)[C@H]2O)c(=O)[nH]1` [UDP] the “X-ray crystal structure of complex, 2.80 A” value (TtOGT) was “TtOGT was co-crystallized with the product of O-GlcNAc transfer, UDP”.

In the case of `C=CC=CC(=O)N[C@H]1c2nc(CCc3ccccc3)cn2[C@H](CO)[C@@H](O)[C@@H]1O` [GlcNAcstatin G], the Ki (TtOGA) is reported as 18 nM.

B1: TtOGA (Thermobaculum terrenum ATCC BAA-798) (protein)
chain: MEYFRYRGIIEGFYGKPWEHQERLDMFEFMQANNLNAYIYAPKQDLYHRELWREPYKEEQLQLFKELIEKAGSCGINFTFAISPGLSLVYSSEEELETLIRKITPFLEMGVHSIGIFFDDVPFDLIHEEDRNSYSNLAEAQADFLTRVLQRLESTISTPQIIMCPTFYCNDPNLEYLRILGQRLPKNIDVFWTGPNVCSHEITTSHMQEVQKSLQRPATLWDNYPVNDGGMMPELHIGPYDHRDPELHTHVVGIYANPMALPEASKLPLYTFAQYLNSPSQYNPQDSWRQAVSTLLGEDNLSAMEKFYQSNTISCLEPEEPAYLTNLFKKVQEDFASFRFEQGLRTLREEIISMQTTYSRLSTQDSKFFWEIRPWLEEYKLWTDYLDQAMITFSNLFTGFFTADEEQARESLQKALQGRTYLREVLKDAVDFRTRVCGDVVRNFLQQVLRSTVSIELQAEGKEWTALPPGIVRD
notes: full-length, N-terminal GST fusion from E. coli BL21, GST cut off with PreScission protease (pGEX-6P-1)
B1 gave a Km [1] of 90 µM and a kcat [1] of 180 s⁻¹.

B2: hTab1-O-GlcNAc peptide (392-VPYgSSAQ-398, gS is GlcNAcylated serine) (peptide)
peptide: VPYS(βGlcNAc)SAQ
notes: probably synthetic; also called hTab1 glycopeptide; glycopeptide derived from the validated hTab1 glycosylation site
B2: binds [2].
